{
  "source": "patent US9822156B2",
  "about": "“Amyloid beta expression constructs and uses therefor” (Whitehead Institute for Biomedical Research, priority 2014, dated 2017)",
  "key": {"293T cells": {"tested_on": "293T cells", "assay": "TOXILIGHT cytotoxicity assay in stable doxycycline-inducible poly-Aβ 293T cell lines", "format": "cell-based", "details": "72-96 hours following doxycycline induction", "excerpt": "Similar to the poly-Aβ (Aβ40 or Aβ42_1X/4X/6X/8X) expression constructs in yeast (see Example 1), a poly-Aβ toxicity model was developed in mammalian cells. Stable cell lines with chromosomally-integrated tetracycline (doxycycline)-inducible […] transgenes (Aβ42-4X, Aβ42-6X, Aβ40-4X, Aβ40-6X and Aβ42-Arctic-4X) linked to an N-terminal insulin signal peptide were generated (FIGS. 13A-13B). These expression constructs were generated using the pLix402 lentiviral plasmid (FIG. 12). The poly-Aβ constructs were individually transfected into 293T cells along with the lentiviral packaging plasmid psPAX and the viral envelope-expressing plasmid mMD2.G using LIPOFECTAMINE® 2000 (Invitrogen) transfection reagent to generate lentivirus containing the poly-Aβ transgene. The virus was harvested from the supernatant of transfected 293T cells 2 and 3 days post-transfection and subsequently purified and concentrated using the LENTI-X™ Maxi Purification kit (Clontech) according to the manufacturer's instructions.\nTo generate stable cells harboring the expression transgene for the poly-Aβ constructs, 293T cells were infected using POLYBRENE® infection reagent (Sigma Aldrich), which is used to introduce retroviral vectors into mammalian cells. Infected cells were then selected using puromycin (2-10 μg/ml). Infected cells harboring the transgene survive this selection pressure whereas the control cells without the transgene die in 2-3 days. Aliquots of the selected cells were frozen in liquid nitrogen or maintained and propagated for further applications.\nExpression of Aβ peptide from these stable cell lines was measured in the culture supernatant 72-96 hours following doxycycline induction (FIG. 13D). Toxicity was measured 72-96 hours following doxycycline induction using a TOXILIGHT™ cytotoxicity assay (Lonza) as described in Example 2."}, "Yeast cells": {"tested_on": "Yeast cells", "assay": "Yeast growth spotting assay of Aβ expression constructs on glucose or galactose media", "format": "cell-based", "details": "galactose-induced expression from 2μ high-copy plasmid pAG425Gal", "excerpt": "The Aβ sequence was codon optimized for expression in yeast. The Aβ expression construct consists of attB Gateway flanking regions at the 5′ and 3′ ends (nucleotides […] (SEQ ID NO:84) and […] (SEQ ID NO:85), respectively) for Gateway cloning of MatαPrepro-Aβ42 sequence. The entire construct was synthesized into pUC57-Kan plasmid and cloned into the Gateway entry vector pDONR221. These constructs were then transferred into the pAG425Galexpression vector by Gateway LR cloning (Alberti et al., “A suite of Gateway cloning vectors for high throughput genetic analysis in Saccharomyces cerevisiae,” Yeast 24:913 (2007)). The GAL1 promoter enables expression of Aβ fusion transgenes under galactose-inducible conditions. The vector has an ampicillin resistant gene for amplification of the vector in E. coli and leucine auxotrophic marker (LEU2) for selection of transformed yeast cells on media lacking leucine (FIG. 2).\nYeast cells transformed with either an expression vector containing galactose-inducible green fluorescent protein (GFP) or a galactose-inducible expression plasmid encoding a yeast mating factor alpha signal sequence/human amyloid beta 1-42 (Aβ42) or 1-40 (Aβ40) or scrambled Aβ42 fusion polypeptide were grown on glucose or galactose containing synthetic media and growth was assessed. Transformed cells were selected in medium lacking leucine. Individual transformants were grown overnight in complete synthetic medium (CSM) lacking leucine with 2% raffinose as the carbon source. Cell concentrations (OD600) were adjusted in a 96-well plate to OD 0.5 or 1. Cells were then 5-fold serially diluted and spotted on SD media containing glucose (uninduced) and galactose (induced). Plates were incubated at 30° C. for 2 days (glucose) or 3 to 4 days (galactose)."}, "Rat cortical neurons": {"tested_on": "Rat cortical neurons", "assay": "Fluorescence microscopy of neuronal survival and morphology after lentiviral Aβ infection (GFP live imaging, Map2 staining)", "format": "cell-based", "details": "for neuronal survival and morphology, GFP live neuron imaging: 21 days after initial infection, identical MOI; for neuronal survival and morphology, Map2 immunostaining: twenty-one days post-infection", "procedure": "Rat cortical neurons were infected with a doxycycline-inducible lentiviral GFP construct. Two days post-infection, the cells were infected again with neuron-specific (synapsin promoter) lentiviral Aβ constructs (i.e., Aβ40, Aβ42, and various mutations). The doubly-infected cells were treated with doxycycline 7 days post-infection to express GFP. After 21 days of the initial infection, live neurons were visualized using fluorescence microscopy to observe the effect of different Aβ variants on neuronal survival and morphology by visualizing neurons expressing GFP in presence of Aβ expressed from the transgenes.\nSimilar observations were also made by immunohistochemical analysis of rat cortical neurons infected with neuron-specific (synapsin promoter) lentiviral Aβ constructs. Twenty-one days post-infection, the neurons were stained with a neuron-specific microtubule-associated protein 2 (Map2) primary antibody (rabbit polyclonal, Millipore) and ALEXA FLUOR® (red fluorophore conjugated) secondary antibody (goat anti-rabbit polyclonal, Life Technologies). Neuronal cells and morphology were visualized to observe the effect of different Aβ mutations using fluorescence microscopy."}, "[1]": {"tested_on": "Rat embryonic cortical neurons", "details": "lentiviral infection, synapsin promoter, secretory pathway expression", "excerpt": "Rat embryonic cortical neurons were used for expressing Aβ. For generating lentiviral constructs, an expression vector was used with the human synapsin 1 promoter upstream of the inserted insulin signal peptide-Aβ fusion polypeptide transgene (FIG. 9). The encoded fusion polypeptide is processed in the secretory pathway of the neuron, releasing Aβ in the extracellular milieu.\nThe pLV-Aβ constructs along with the psPAX2 packaging vector and pMD2.G envelope vector were transfected in 293T cells using LIPOFECTAMINE® 2000 (Invitrogen) transfection reagent following the manufacture's instruction to generate lentivirus containing the Aβ transgene. The virus was purified using LENTI-X™ Maxi Purification Kit (Clontech) from the supernatant of the transfected 293T cells according to the protocol provided by the manufacturer. Viral titer were determined by using Lentivirus-Associated p24 ELISA Kit (Cell BioLabs).\nRat embryonic cortices were dissected out of embryonic (E18) rat brains, and neurons were enriched in adherent monolayer culture. These cortical neurons were infected with lentiviral preparation harboring an Aβ transgene or a control gene (RFP in the same vector backbone). Infected cultures were harvested to quantify the amount of Aβ in the supernatant and cell lysate by Aβ-specific ELISA 21 days after infection (FIG. 10A). Corresponding cytotoxicity of the infected neurons was measured by quantifying ATP levels using […]™ assay for cell viability (Lonza)."}},
  "data": [
    {"molecule": "AB40-6X: doxycycline-inducible construct, insulin signal peptide and six copies of Aβ40, SEQ ID NO:43", "values": [
      {"measurement": "Aβ peptide-mediated cytotoxic effect (adenylate kinase release), rank order", "setting": "293T cells", "result": "Aβ42-6X≧Aβ42-Arctic-4X≧Aβ42-4X≧AB40-6X≧Aβ40-4X"}
    ]},
    {"molecule": "Aβ40-4X: doxycycline-inducible construct, insulin signal peptide and four copies of Aβ40, SEQ ID NO:41", "values": [
      {"measurement": "Aβ peptide-mediated cytotoxic effect (adenylate kinase release), rank order", "setting": "293T cells", "result": "Aβ42-6X≧Aβ42-Arctic-4X≧Aβ42-4X≧AB40-6X≧Aβ40-4X"}
    ]},
    {"molecule": "Aβ42 (1X): yeast expression construct, mating factor alpha prepro sequence with one copy of Aβ42, SEQ ID NO:51", "values": [
      {"measurement": "toxicity (inhibition of yeast cell growth) upon expression", "setting": "Yeast cells", "result": "not toxic"}
    ]},
    {"molecule": "Aβ42-6X: doxycycline-inducible construct, insulin signal peptide and six copies of Aβ42, SEQ ID NO:39", "values": [
      {"measurement": "Aβ peptide-mediated cytotoxic effect (adenylate kinase release), rank order", "setting": "293T cells", "result": "Aβ42-6X≧Aβ42-Arctic-4X≧Aβ42-4X≧AB40-6X≧Aβ40-4X"}
    ]},
    {"molecule": "Aβ42_I31E: lentiviral construct, insulin signal peptide fused to Aβ42 I31E, SEQ ID NO:21", "values": [
      {"measurement": "neuronal survival and morphology, GFP live neuron imaging", "setting": "Rat cortical neurons", "result": "reduced cytotoxicity and no significant morphological distortions of the neurons and neurites"},
      {"measurement": "neuronal survival and morphology, Map2 immunostaining", "setting": "Rat cortical neurons", "result": "reduced cytotoxicity and had no significant effects on the neuronal morphology"},
      {"measurement": "cytotoxicity (ATP levels)", "setting": "[1]", "result": "less cytotoxic effects compared to either the wild-type human Aβ42 or the Arctic variation of human Aβ42"}
    ]},
    {"molecule": "E22_deletion: yeast construct, four copies of Aβ42 with E22 deleted, SEQ ID NO:79 (protein) MRFPSIFTAVLFAASSALAAPVNTTTEDETAQIPAEAVIGYLDLEGDFDVAVLPFSNSTNNGLLFINTTIASIAAKEEGVSLDKREAEADAEFRHDSGYEVHHQKLVFFADVGSNKGAIIGLMVGGVVIAKREAEAEADAEFRHDSGYEVHHQKLVFFADVGSNKGAIIGLMVGGVVIAKREADAEADAEFRHDSGYEVHHQKLVFFADVGSNKGAIIGLMVGGVVIAKREADAEADAEFRHDSGYEVHHQKLVFFADVGSNKGAIIGLMVGGVVIA", "values": [
      {"measurement": "toxicity (inhibition of yeast cell growth) upon expression", "setting": "Yeast cells", "result": "profound toxicity"}
    ]},
    {"molecule": "Aβ42_Arctic (E22G): lentiviral construct, insulin signal peptide fused to Aβ42 E22G, SEQ ID NO:17 (protein) MALWMRLLPLLALLALWGPDPAAADAEFRHDSGYEVHHQKLVFFAGDVGSNKGAIIGLMVGGVVIA", "values": [
      {"measurement": "neuronal survival and morphology, GFP live neuron imaging", "setting": "Rat cortical neurons", "result": "caused neuronal death and adversely affected neurite outgrowth and structures"},
      {"measurement": "neuronal survival and morphology, Map2 immunostaining", "setting": "Rat cortical neurons", "result": "profound cytotoxicity, resulting in massive neuronal loss and distorted neurite structures and outgrowth"},
      {"measurement": "cytotoxicity (ATP levels)", "setting": "[1]", "result": "more toxic effect compared to the wild-type human Aβ42"}
    ]},
    {"molecule": "Aβ42_Arc/I31E: lentiviral construct, insulin signal peptide fused to Aβ42 E22G/I31E, SEQ ID NO:23 (protein) MALWMRLLPLLALLALWGPDPAAADAEFRHDSGYEVHHQKLVFFAGDVGSNKGAEIGLMVGGVVIA", "values": [
      {"measurement": "neuronal survival and morphology, GFP live neuron imaging", "setting": "Rat cortical neurons", "result": "reduced cytotoxicity and no significant morphological distortions of the neurons and neurites"},
      {"measurement": "neuronal survival and morphology, Map2 immunostaining", "setting": "Rat cortical neurons", "result": "reduced cytotoxicity and had no significant effects on the neuronal morphology"},
      {"measurement": "cytotoxicity (ATP levels)", "setting": "[1]", "result": "less cytotoxic effects compared to either the wild-type human Aβ42 or the Arctic variation of human Aβ42"}
    ]},
    {"molecule": "Arctic: yeast construct, four copies of Aβ42 E22G, SEQ ID NO:75 (protein) MRFPSIFTAVLFAASSALAAPVNTTTEDETAQIPAEAVIGYLDLEGDFDVAVLPFSNSTNNGLLFINTTIASIAAKEEGVSLDKREAEADAEFRHDSGYEVHHQKLVFFAGDVGSNKGAIIGLMVGGVVIAKREAEAEADAEFRHDSGYEVHHQKLVFFAGDVGSNKGAIIGLMVGGVVIAKREADAEADAEFRHDSGYEVHHQKLVFFAGDVGSNKGAIIGLMVGGVVIAKREADAEADAEFRHDSGYEVHHQKLVFFAGDVGSNKGAIIGLMVGGVVIA", "values": [
      {"measurement": "toxicity (inhibition of yeast cell growth) upon expression", "setting": "Yeast cells", "result": "profound toxicity"}
    ]},
    {"molecule": "Arctic_I31E: yeast construct, four copies of Aβ42 E22G/I31E, SEQ ID NO:77 (protein) MRFPSIFTAVLFAASSALAAPVNTTTEDETAQIPAEAVIGYLDLEGDFDVAVLPFSNSTNNGLLFINTTIASIAAKEEGVSLDKREAEADAEFRHDSGYEVHHQKLVFFAGDVGSNKGAEIGLMVGGVVIAKREAEAEADAEFRHDSGYEVHHQKLVFFAGDVGSNKGAEIGLMVGGVVIAKREADAEADAEFRHDSGYEVHHQKLVFFAGDVGSNKGAEIGLMVGGVVIAKREADAEADAEFRHDSGYEVHHQKLVFFAGDVGSNKGAEIGLMVGGVVIA", "values": [
      {"measurement": "toxicity (inhibition of yeast cell growth) upon expression", "setting": "Yeast cells", "result": "significantly lower amount of toxicity"}
    ]},
    {"molecule": "Dutch: yeast construct, four copies of Aβ42 E22Q, SEQ ID NO:71 (protein) MRFPSIFTAVLFAASSALAAPVNTTTEDETAQIPAEAVIGYLDLEGDFDVAVLPFSNSTNNGLLFINTTIASIAAKEEGVSLDKREAEADAEFRHDSGYEVHHQKLVFFAQDVGSNKGAIIGLMVGGVVIAKREAEAEADAEFRHDSGYEVHHQKLVFFAQDVGSNKGAIIGLMVGGVVIAKREADAEADAEFRHDSGYEVHHQKLVFFAQDVGSNKGAIIGLMVGGVVIAKREADAEADAEFRHDSGYEVHHQKLVFFAQDVGSNKGAIIGLMVGGVVIA", "values": [
      {"measurement": "toxicity (inhibition of yeast cell growth) upon expression", "setting": "Yeast cells", "result": "profound toxicity"}
    ]}
  ]
}
